From patent publication US20190352359A1 (IMMATICS BIOTECHNOLOGIES, published 2019)

Molecular target: T1, HLA-A*24
T1 construct: Monomers captured on streptavidin plates; also called peptide-receptive MHC molecules; MHC complexes
Assay: UV peptide-exchange ELISA (anti-b2m); yield grade ++++ = >75%
From the text: Candidate peptides for T cell based therapies according to the present invention were further tested for their MHC binding capacity (affinity). The individual peptide-MHC complexes were produced by UV-ligand exchange, where a UV-sensitive peptide is cleaved upon UV-irradiation, and exchanged with the peptide of interest as analyzed. Only peptide candidates that can effectively bind and stabilize the peptide-receptive MHC molecules prevent dissociation of the MHC complexes. To determine the yield of the exchange reaction, an ELISA was performed based on the detection of the light chain (p2m) of stabilized MHC complexes. The assay was performed as generally described in Rodenko et al. (Rodenko et al., 2006)
96 well MAXISorp plates (NUNC) were coated over night with 2 ug/ml streptavidin in PBS at room temperature, washed 4× and blocked for 1 h at 37° C. in 2% BSA containing blocking buffer. Refolded HLA-A*02:01/MLA-001 monomers served as standards, covering the range of 15-500 ng/ml. Peptide-MHC monomers of the UV-exchange reaction were diluted 100-fold in blocking buffer. Samples were incubated for 1 h at 37° C., washed four times, incubated with 2 ug/ml HRP conjugated anti-β2m for 1h at 37° C., washed again and detected with TMB solution that is stopped with […]. Absorption was measured at 450 nm. Candidate peptides that show a high exchange yield (preferably higher than 50%, most preferred higher than 75%) are generally preferred for a generation and production of antibodies or fragments thereof, and/or T cell receptors or fragments thereof, as they show sufficient avidity to the MHC molecules and prevent dissociation of the MHC complexes.

| Binder | peptide exchange yield [%] |
| --- | --- |
| RYSPVKDAW (also called RYSPVKDAW) [KLHDC7B-006] | > 75 |
| HWSHITHLF (also called HWSHITHLF) [DPY19L1-003] | > 75 |
| KYKDHFTEI (also called KYKDHFTEI) [MAGEB1-001] | > 75 |
| VYLASVAAF (also called VYLASVAAF) [SLC45A3-006] | > 75 |
| AYFVAMHLF (also called AYFVAMHLF) [TENM4-007] | > 75 |
| AWSPPATLFLF (also called AWSPPATLFLF) [LOXL4-003] | > 75 |
| TYIDFVPYI (also called TYIDFVPYI) [TEX15-001] | > 75 |
| RYTGQWSEW (also called RYTGQWSEW) [IL9R-001] | > 75 |
| VYKWTEEKF (also called VYKWTEEKF) [TSPE-001] | > 75 |
| VYDSIWCNM (also called VYDSIWCNM) [SCGB2A1-001] | > 75 |
| FYHEDMPLW (also called FYHEDMPLW) [FCRL5-004] | > 75 |
| RWLDGSPVTL (also called RWLDGSPVTL) [CLEC17-005] | > 75 |
| SYLWTDNLQEF (also called SYLWTDNLQEF) [DNAH17-003] | > 75 |
| KLPTEWNVL (also called KLPTEWNVL) [AKAP13-005] | > 75 |
| NFYLFPTTF (also called NFYLFPTTF) [PNLD-001] | > 75 |
| SYPKELMKF (also called SYPKELMKF) [MROH2A-004] | > 75 |
| LYITKVTTI (also called LYITKVTTI) [FSTL4-002] | > 75 |
| RYFDENIQKF (also called RYFDENIQKF) [HEPHL-004] | > 75 |
| RYAHTLVTSVLF (also called RYAHTLVTSVLF) [ITIH6-003] | > 75 |
| QYGFNYNKF (also called QYGFNYNKF) [PNLD-002] | > 75 |
| KYVGEVFNI (also called KYVGEVFNI) [DMXL1-001] | > 75 |
| QYIPTFHVY (also called QYIPTFHVY) [SLC44A5-003] | > 75 |
| IYKDYYRYNF (also called IYKDYYRYNF) [PLA2G2D-001] | > 75 |
| LYIDKGQYL (also called LYIDKGQYL) [HMCN1-011] | > 75 |
| YYAADQWVF (also called YYAADQWVF) [CCR4-004] | > 75 |
| IYANVTEMLL (also called IYANVTEMLL) [CYP27C-001] | > 75 |
| TYINSLAIL (also called TYINSLAIL) [TGM4-003] | > 75 |

| Binder | peptide exchange yield [%] |
| --- | --- |
| VYIVPVIVL (also called VYIVPVIVL) [OXTR-002] | > 75 |
| IYTDITYSF (also called IYTDITYSF) [CHRNA6-002] | > 75 |
| LYHNWRHAF (also called LYHNWRHAF) [PDE11-002] | > 75 |
| RYLPNPSLNAF (also called RYLPNPSLNAF) [CYP1A1-002] | > 75 |
| IYYSHENLI (also called IYYSHENLI) [F5-005] | > 75 |
| PYFSPSASF (also called PYFSPSASF) [SPER-001] | > 75 |
| VFPLVTPLL (also called VFPLVTPLL) [PTP-042] | > 75 |
| EYQQYHPSL (also called EYQQYHPSL) [CLEC4C-001] | > 75 |
| LQPQPQLFFSF (also called LQPQPQLFFSF) [POT-002] | > 75 |
| SWHKATFLF (also called SWHKATFLF) [COL24-002] | > 75 |
| NYMDTDNLMF (also called NYMDTDNLMF) [LOC1001246-002] | > 75 |
| VYKEDLPQL (also called VYKEDLPQL) [EML-002] | > 75 |
| IYFATQVVF (also called IYFATQVVF) [SLC45A3-004] | > 75 |
| YFCSTKGQLF (also called YFCSTKGQLF) [FCRL2-004] | > 75 |
| VYNNNSSRF (also called VYNNNSSRF) [MYO10-003] | > 75 |
| FYKLIQNGF (also called FYKLIQNGF) [FLT3-010] | > 75 |
| NYPEGAAYEF (also called NYPEGAAYEF) [ESR1-008] | > 75 |
| YQSRDYYNF (also called YQSRDYYNF) [AR-002] | > 75 |
| IYMTTGVLL (also called IYMTTGVLL) [TDRD9-002] | > 75 |
| GYFGTASLF (also called GYFGTASLF) [SLC16A14-001] | > 75 |
| RYLEEHTEF (also called RYLEEHTEF) [MROH2A-003] | > 75 |
| QYLSIAERAEF (also called QYLSIAERAEF) [MSX-001] | > 75 |
| NYVLVPTMF (also called NYVLVPTMF) [CAPN6-003] | > 75 |
| KWFDSHIPRW (also called KWFDSHIPRW) [ERV-002] | > 75 |
| GYFGNPQKF (also called GYFGNPQKF) [LAMA3-002] | > 75 |
| VYAVISNIL (also called VYAVISNIL) [TNR-003] | > 75 |
| FYIRRLPMF (also called FYIRRLPMF) [CHRNA6-001] | > 75 |
